Measured values published in patent US20100184663A1 (UNIVERSITY OF UTAH RESEARCH FOUNDATION, published 2010).
Bridge positions count the residues as written; N and C are the ends. Square brackets hold non-standard residues; d marks the D form. Ends that are not written are not given here.

Legend:
HIV-1 gp41 (HXB2 strain) = HIV-1 gp41 (HXB2 strain) (HIV-1 HXB2, UniProt P04578 512-856); test: cell-based or functional assay
HIV-1 gp41 (JRFL strain) = HIV-1 gp41 (JRFL strain) (HIV-1 JRFL); test: cell-based or functional assay

Ac-G[dA][dC][dD][dY][dP][dE][dW][dQ][dW][dL][dC][dA][dA]G[dK]-NH2 (disulfide 3-12 (inferred)) [PIE7-GK]
IC50 (HXB2), pseudovirion entry (HIV-1 gp41 (HXB2 strain)): 389 nM
IC50 (JRFL), pseudovirion entry (HIV-1 gp41 (JRFL strain)): 15800 nM

Ac-[dH][dP][dC][dD][dY][dP][dE][dW][dQ][dW][dL][dC][dE][dL]G[dK]-NH2 (disulfide 3-12 (inferred)) [PIE12]
IC50 (JRFL), pseudovirion entry (HIV-1 gp41 (JRFL strain)): 578 nM

[dH][dP][dC][dD][dY][dP][dE][dW][dQ][dW][dL][dC][dE][dL]G[dK] (disulfide 3-12 (inferred); also: dimer joined C- to C-terminus by PEG5 spacer) [C5C(PIE12)2]
IC50 (JRFL), pseudovirion entry (HIV-1 gp41 (JRFL strain)): 14.2 nM

[dH][dP][dC][dD][dY][dP][dE][dW][dQ][dW][dL][dC][dE][dL]G[dK] (disulfide 3-12 (inferred); also: trimer, C-termini joined by PEG5 spacers) [C5C(PIE12)3]
IC50 (JRFL), pseudovirion entry (HIV-1 gp41 (JRFL strain)): 2.77 nM

Ac-[dH][dP][dC][dD][dY][dP][dE][dW][dQ][dW][dL][dC][dR][dL]G[dK]-NH2 (disulfide 3-12 (inferred)) [PIE14]
IC50 (HXB2), pseudovirion entry (HIV-1 gp41 (HXB2 strain)): 33.1 nM
IC50 (JRFL), pseudovirion entry (HIV-1 gp41 (JRFL strain)): 1050 nM

[dK]G[dA][dC][dD][dY][dP][dE][dW][dQ][dW][dL][dC][dA][dA] (disulfide 4-13 (inferred); also: dimer joined N- to C-terminus by PEG9 spacer) [N9C(PIE7)2]
IC50 (HXB2), pseudovirion entry (HIV-1 gp41 (HXB2 strain)): 0.329 nM
IC50 (JRFL), pseudovirion entry (HIV-1 gp41 (JRFL strain)): 313 nM

Ac-G[dA][dC][dD][dY][dP][dE][dW][dQ][dW][dL][dC][dA][dA]G[dK][dK]-NH2 (disulfide 3-12 (inferred)) [PIE7-GKK]
IC50 (HXB2), pseudovirion entry (HIV-1 gp41 (HXB2 strain)): 382 nM
IC50 (JRFL), pseudovirion entry (HIV-1 gp41 (JRFL strain)): 19100 nM

Ac-[dH][dP][dC][dD][dY][dP][dE][dW][dQ][dW][dL][dC][dK][dL]G[dK]-NH2 (disulfide 3-12 (inferred)) [PIE13]
IC50 (HXB2), pseudovirion entry (HIV-1 gp41 (HXB2 strain)): 41.3 nM
IC50 (JRFL), pseudovirion entry (HIV-1 gp41 (JRFL strain)): 1470 nM

Ac-[dK]G[dA][dC][dD][dY][dP][dE][dW][dQ][dW][dL][dC][dA][dA]G[dK]-NH2 (disulfide 4-13 (inferred)) [K-PIE7-GK]
IC50 (JRFL), pseudovirion entry (HIV-1 gp41 (JRFL strain)): 14800 nM

B1: PEG5-(PIE13)2 (peptide)
peptide: [dH][dP][dC][dD][dY][dP][dE][dW][dQ][dW][dL][dC][dK][dL]G[dK]
modifications: disulfide 3-12 (inferred); also: dimer crosslinked via internal Lys with PEG5 linker
IC50 (JRFL), pseudovirion entry (HIV-1 gp41 (JRFL strain)): 15.1 nM

Ac-[dH][dA][dC][dD][dY][dP][dE][dW][dQ][dW][dL][dC][dE][dL]G[dK]-NH2 (disulfide 3-12 (inferred)) [PIE15]
IC50 (HXB2), pseudovirion entry (HIV-1 gp41 (HXB2 strain)): 66.7 nM
IC50 (JRFL), pseudovirion entry (HIV-1 gp41 (JRFL strain)): 1450 nM

B2: PIE7-GK-PEG4 (peptide)
peptide: Ac-G[dA][dC][dD][dY][dP][dE][dW][dQ][dW][dL][dC][dA][dA]G[dK]-NH2
modifications: disulfide 3-12 (inferred); also: PEG4 attached at the C-terminus, order with amide not given here
IC50 (HXB2), pseudovirion entry (HIV-1 gp41 (HXB2 strain)): 351 nM
IC50 (JRFL), pseudovirion entry (HIV-1 gp41 (JRFL strain)): 13100 nM
